B1: 48 (nucleic acid, listed as Mus musculus)
chain: AATCTAGAATGGCAGCTGCCTCTACTTCCAGCCCTGTAATTTCACAGCCCCAGTTCACAGCCATGAACGAACAACAGTGCTTCTACAATGAGTCTATCGCCTTCTTTTATAACCGGAGTGGGAAATATCTAGCCACAGAATGGAACACAGTGAGCAAGCTGGTGATGGGACTGGGCATCACTGTTTGCGTGTTCATCATGTTGGCCAATCTCCTGGTCATGGTGGCAATCTACGTCAACCGCCGCTTCCATTTCCCTATTTATTACTTGATGGCCAACCTGGCTGCTGCAGACTTCTTCGCTGGATTGGCCTACTTCTACCTGATGTTCAATACAGGACCTAATACCCGGAGACTGACTGTTAGCACGTGGCTCCTCCGGCAGGGCCTCATTGACACCAGCCTGACAGCTTCTGTGGCCAACCTGCTGGCTATTGCTATCGAGAGGCACATCACGGTTTTCCGCATGCAGCTCCATACACGAATGAGCAACCGGCGCGTGGTGGTGGTGATTGTAGTCATCTGGACTATGGCCATTGTGATGGGTGCTATACCCAGTGTGGGCTGGAACTGCATCTGTGATATCGATCACTGTTCCAACATGGCACCCCTCTACAGTGACTCCTACTTAGTCTTCTGGGCCATTTTCAACCTGGTGACCTTTGTGGTCATGGTGGTTCTCTACGCTCACATCTTTGGCTATGTTCGCCAGAGGACTATGAGGATGTCTCGGCATAGTTCTGGACCCAGGAGGAATCGGGACACCATGATGAGCCTTCTGAAGACTGTGGTCATTGTGCTTGGTGCCTTTATTGTCTGCTGGACTCCGGGATTGGTCTTGTTATTGCTGGATGTGTGCTGCCCGCAGTGCGATGTCCTGGCCTATGAGAAGTTCTTCCTCCTCCTGGCCGAGTTCAACTCTGCTATGAACCCCATCATCTACTCCTACCGCGACAAAGAGATGAGCGCCACCTTCAGGCAGATCCTGTGTTGCCAGCGCAACGAGAACCCTAATGGCCCCACGGAAGGCTCTGACCGCTCTGCCTCCTCCCTCAACCACACCATTCTGGCTGGAGTTCACAGCAACGACCACTCTGTGGTTACTAGTAA
B2: 65 (nucleic acid, listed as Mus musculus)
chain: AATCTAGAATGGAGGCCAGAGCTCAGAGTGGCAACGGGTCGCAGCCTTTGCTGCAGACAGCCCATGACAGTGGCAGGCAGCGCGGGGAGCCGGATCCAAGAGATGCCCTTACCCAGCAGGTACACGTCTTGTCTCTGGATCAGATCAGAGCCATCCGAAACACCAATGAGTACACAGAGGGCCCTACTGTGGTCCCAAGACCTGGGCTCAAGCCTGCTCCTCGCCCCTCCACTCAGCACAAACATGAAAGACTCCACGGTCTGCCGGAGCACCGCCAGCCTCCCAGGCTCCAGCCCTCGCAGGTCCATTCTTCACGGGCCCCTCTGTCCAGGTCCATCAGCACTGTCAGCTCAGGGTCTCGGAGCAGTACAAGGACAAGTACCAGCAGCAGCTCCTCGGAACAGAGACTGTTAGGACCGTCCTTCTCCCACGGGCCTGCTGCTGCTGATGGAATAATCCGAGTGCAGCCTAAATCGGAGCTCAAGCCAGGTGACGTTAAGCCACTGAGCAAGGATGATTTGGGTCTGCATGCCTACAGGTGTGAGGACTGCGGCAAGTGCAAGTGTAAGGAGTGCACCTACCCGAGGCCCCTGCCGTCGGACTGGATCTGTGACAAGCAGTGCCTCTGCTCAGCCCAGAACGTCATTGACTATGGGACTTGTGTGTGCTGTGTGAAAGGTCTCTTCTATCACTGCTCCAATGACGATGAGGACAATTGTGCTGACAACCCGTGCTCTTGCAGCCAGTCCCATTGTTGTACGCGATGGTCAGCGATGGGAGTCATGTCTCTCTTTTTGCCTTGTTTATGGTGTTACCTTCCAGCCAAGGGTTGCCTTAAATTGTGCCAGGGGTGTTATGACCGAGTGAACAGGCCGGGTTGTCGTTGTAAAAACTCAAATACAGTTTGCTGCAAAGTTCCCACTGTCCCCCCTAGGAACTTTGAAAAACCAACAACTAGTAAAAGGGCGAATTCCAGCAC

Tested on: C3H10T1/2 cells
Experiment: Transient over-expression of candidate genes, cooperation with BMP2 by measurement of alkaline phosphatase
Type: cell-based, mouse
Parameters: key: +: positive or negative cooperation with BMP2; −: positive or negative cooperation with BMP2
Settings: for Validation in vitro (coop over BMP2) C3H10T1/2: alkaline phosphatase; for Validation in C2H10T1/2 (coop over BMP2): alkaline phosphatase at 48 hours
Description: Mouse cell lines representing different stages of osteoblastic differentiation, C2C12, C2H10T1/2, ST2 and MC3T3-E1, were grown in the presence of agents capable of the induction of osteoblastic differentiation in vitro such as BMP2 and Sonic Hedgehog or in the presence of TGF beta (negative control) or with serum alone. Primary cells derived from mouse calvaria were also cultured for 0, 2, 7 14 and 21 days and RNA prepared for each time point. For example, C3H10T ½ and C2C12 can be obtained from the ATCC (Manassas, Va., USA) under the collection numbers CCL-226 and CRL-1772, respectively.
The candidates genes are cloned in expression vectors and their ability to express a protein of the expected size verified by COS cells transient transfection. The genes are then transfected in C3H10T1/2 cells and/or C2C12 cells (transient over-expression) and positive or negative cooperation with BMP2 is evaluated by the measurement of alkaline phosphatase (enzymatic assay and TaqMan) at 48 hours. Controls of positive cooperation, recombinant Sonic Hedgehog, or negative cooperation, recombinant Noggin, are included in each test.

Molecule	Validation in vitro (coop over BMP2) C3H10T1/2	Validation in C2H10T1/2 (coop over BMP2)
B1	+	+ coop over BMP2
B2	+	+ coop over BMP2
